Laboratory results published in patent US9266964.
Positions count from the first letter of the chain named.

B1: X67-B03 (antibody, V domains shown)
VH: EVQLLESGGGLVQPGGSLRLSCAASGFTFSAYSMIWVRQAPGKGLEWVSYIRPSGGRTTYADSVKGRFTISRDNSKNTLYLQMNSLRAEDTAVYYCARGGLLLWSRELKSNYFDYWGQGTLVTVSS
VL: DIQMTQSPSSLSAFVGDRVTITCRASQPIDNYLNWYHQKPGKAPKLLIYAASRLQSGVPSRLSGSGFGTDFTLTISSLQPEDFGNYYCQQSYTVPYTFGGGTKVEIR
notes: Single point mutant (F to S at P2 of HC CDR3) of M142-H08; Only variable domains and the start of CH1 are printed; also called 559A-X67-B03
B2: X67-F01 (antibody, V domains shown)
VH: B1 VH with S105Q
VL: B1 VL
notes: Single point mutant (F to Q at P2 of HC CDR3) of M142-H08; Only variable domains and the start of CH1 are printed; also called 559A-X67-F01
B3: X67-F10 (antibody, V domains shown)
VH: B1 VH with S105T
VL: B1 VL
notes: Single point mutant (F to T at P2 of HC CDR3) of M142-H08; Only variable domains and the start of CH1 are printed; also called 559A-X67-F10
B4: X67-C03 (antibody, V domains shown)
VH: B1 VH with S105M
VL: B1 VL
notes: Single point mutant (F to M at P2 of HC CDR3) of M142-H08; the printed HC is used; Only variable domains and the start of CH1 are printed; also called 559A-X67-C03
B5: X67-H04 (antibody, V domains shown)
VH: B1 VH with S105E
VL: B1 VL
notes: Single point mutant (F to E at P2 of HC CDR3) of M142-H08; Only variable domains and the start of CH1 are printed; also called 559A-X67-H04
B6: X67-D03 (antibody, V domains shown)
VH: B1 VH with S105N
VL: B1 VL
notes: Single point mutant (F to N at P2 of HC CDR3) of M142-H08; Only variable domains and the start of CH1 are printed; also called 559A-X67-D03
B7: X67-E04 (antibody, V domains shown)
VH: B1 VH with S105D
VL: B1 VL
notes: Single point mutant (F to D at P2 of HC CDR3) of M142-H08; Only variable domains and the start of CH1 are printed; also called 559A-X67-E04
B8: X67-C09 (antibody, V domains shown)
VH: B1 VH with S105G
VL: B1 VL
notes: Single point mutant (F to G at P2 of HC CDR3) of M142-H08; Only variable domains and the start of CH1 are printed; also called 559A-X67-C09
B9: X67-G04 (antibody, V domains shown)
VH: B1 VH with S105A
VL: B1 VL
notes: Single point mutant (F to A at P2 of HC CDR3) of M142-H08; Only variable domains and the start of CH1 are printed; also called 559A-X67-G04
B10: X81-B01 (antibody, V domains shown)
VH: EVQLLESGGGLVQPGGSLRLSCAASGFTFSHYLMTWVRQAPGKGLEWVSYISPSGGHTIYADSVKGRFTISRDNSKNTLYLQMNSLRAEDTAVYYCARVARGIAARSRTSYFDYWGQGTLVTVSS
VL: EIVLTQSPGTLSLSPGERATLSCRTSQFVNSNYLAWYQQKPGQAPRLLIYGASSRATGIPDRFSGSGSGTDFTLTISRLEPEDFAVYYCQQSSRTPWTFGQGTKVEIK
notes: No variable domains are printed under the name X81-B01; also called germlined, codon optimized IgG version of X63-G06
B11: M205-C11 (Fab, V domains shown)
VH: B10 VH with H31Q, L33M, T35M, Y50R, H57S, I59L
VL: B10 VL with E1D, V3Q, L4M, K40T, S66T, S68Y, F84Y, A85G, V86T, K104R
B12: M206-E02 (Fab, V domains shown)
VH: B10 VH with H31E, L33M, T35M, Y50V, H57Q, I59H
VL: B10 VL with E1D, V3Q, L4M, K40T, S66T, S68Y, F84Y, A85G, V86T, K104R
B13: M210-H01 (Fab, V domains shown)
VH: B10 VH with T109N, Y111Q, F112Q
VL: B10 VL with E1D, V3Q, L4M, K40T, S66T, S68Y, F84Y, A85G, V86T, K104R
B14: M209-D02 (Fab, V domains shown)
VH: B10 VH with A104T, Y114D
VL: B10 VL with E1D, V3Q, L4M, K40T, S66T, S68Y, F84Y, A85G, V86T, K104R
B15: M209-H03 (Fab, V domains shown)
VH: B10 VH with R101Q, S110T, Y111Q
VL: B10 VL with E1D, V3Q, L4M, K40T, S66T, S68Y, F84Y, A85G, V86T, K104R
B16: M206-H05 (Fab, V domains shown)
VH: B10 VH with H31G, L33K, T35Q, Y50S, H57I, I59M
VL: B10 VL with E1D, V3Q, L4M, K40T, S66T, S68Y, F84Y, A85G, V86T, K104R
B17: M206-C03 (Fab, V domains shown)
VH: B10 VH with H31Q, L33M, T35V, Y50S, S52Y, P53S, H57N, I59P
VL: B10 VL with E1D, V3Q, L4M, K40T, S66T, S68Y, F84Y, A85G, V86T, K104R
B18: M205-A12 (Fab, V domains shown)
VH: B10 VH with H31Q, L33D, T35I, P53S, H57F, I59R
VL: B10 VL with E1D, V3Q, L4M, K40T, S66T, S68Y, F84Y, A85G, V86T, K104R
B19: M209-E03 (Fab, V domains shown)
VH: B10 VH with V99Q
VL: B10 VL with E1D, V3Q, L4M, K40T, S66T, S68Y, F84Y, A85G, V86T, K104R
B20: M205-A02 (Fab, V domains shown)
VH: B10 VH with H31T, T35A, Y50G, S52V, P53S, H57R, I59L
VL: B10 VL with E1D, V3Q, L4M, K40T, S66T, S68Y, F84Y, A85G, V86T, K104R
B21: M205-H01 (Fab, V domains shown)
VH: B10 VH with H31N, L33T, T35Q, E46Q, H57Y, I59G
VL: B10 VL with E1D, V3Q, L4M, K40T, S66T, S68Y, F84Y, A85G, V86T, K104R
B22: M205-F03 (Fab, V domains shown)
VH: B10 VH with H31S, Y32Q, L33Q, T35V, H57N, I59Y
VL: B10 VL with E1D, V3Q, L4M, K40T, S66T, S68Y, F84Y, A85G, V86T, K104R
B23: M203-A03 (Fab, V domains shown)
VH: B10 VH with H31V, L33M, T35I, Y50S, H57Q, I59T
VL: B10 VL with E1D, V3Q, L4M, K40T, S66T, S68Y, F84Y, A85G, V86T, K104R
B24: M204-E12 (Fab, V domains shown)
VH: B10 VH with H31T, L33M, T35Q, S52G, H57K, I59D
VL: B10 VL with E1D, V3Q, L4M, K40T, S66T, S68Y, F84Y, A85G, V86T, K104R
B25: M209-G01 (Fab, V domains shown)
VH: B10 VH with R101Q, A104S, A105G, T109L, F112V
VL: B10 VL with E1D, V3Q, L4M, K40T, S66T, S68Y, F84Y, A85G, V86T, K104R
B26: M205-E11 (Fab, V domains shown)
VH: B10 VH with H31N, L33T, T35G, Y50S, H57K, I59D
VL: B10 VL with E1D, V3Q, L4M, K40T, S66T, S68Y, F84Y, A85G, V86T, K104R
B27: M207-A01 (Fab, V domains shown)
VH: B10 VH with A104S, Y111C
VL: B10 VL with E1D, V3Q, L4M, K40T, S66T, S68Y, F84Y, A85G, V86T, K104R
B28: M208-A10 (Fab, V domains shown)
VH: B10 VH with Y111Q, Y114H
VL: B10 VL with E1D, V3Q, L4M, K40T, S66T, S68Y, F84Y, A85G, V86T, K104R
B29: M205-H08 (Fab, V domains shown)
VH: B10 VH with H31D, L33M, T35M, Y50S, S52V, I59Q
VL: B10 VL with E1D, V3Q, L4M, K40T, S66T, S68Y, F84Y, A85G, V86T, K104R
B30: M206-H04 (Fab, V domains shown)
VH: B10 VH with H31S, L33M, T35V, Y50S, H57Y, Y60Q
VL: B10 VL with E1D, V3Q, L4M, K40T, S66T, S68Y, F84Y, A85G, V86T, K104R
B31: M207-A02 (Fab, V domains shown)
VH: B10 VH with V93L, S110I, Y111N, F112L
VL: B10 VL with E1D, V3Q, L4M, K40T, S66T, S68Y, F84Y, A85G, V86T, K104R
B32: M209-D12 (Fab, V domains shown)
VH: B10 VH with R98T, Y114Q
VL: B10 VL with E1D, V3Q, L4M, K40T, S66T, S68Y, F84Y, A85G, V86T, K104R
B33: M209-B01 (Fab, V domains shown)
VH: B10 VH with A104V, Y111N, Y114Q
VL: B10 VL with E1D, V3Q, L4M, K40T, S66T, S68Y, F84Y, A85G, V86T, K104R
B34: M203-A01 (Fab, V domains shown)
VH: B10 VH with H31N, T35A, Y50W, S52V, H57Y, I59E
VL: B10 VL with E1D, V3Q, L4M, K40T, S66T, S68Y, F84Y, A85G, V86T, K104R
B35: M207-C05 (Fab, V domains shown)
VH: B10 VH with A100G, Y114K
VL: B10 VL with E1D, V3Q, L4M, K40T, S66T, S68Y, F84Y, A85G, V86T, K104R
B36: M210-A06 (Fab, V domains shown)
VH: B10 VH with Y111Q
VL: B10 VL with E1D, V3Q, L4M, K40T, S66T, S68Y, F84Y, A85G, V86T, K104R
B37: M209-H09 (Fab, V domains shown)
VH: B10 VH with S110V, Y114H
VL: B10 VL with E1D, V3Q, L4M, K40T, S66T, S68Y, F84Y, A85G, V86T, K104R
B38: M209-H07 (Fab, V domains shown)
VH: B10 VH with S107Q, F112Y
VL: B10 VL with E1D, V3Q, L4M, K40T, S66T, S68Y, F84Y, A85G, V86T, K104R
B39: M208-D12 (Fab, V domains shown)
VH: B10 VH with V99L, F112Q, Y114I
VL: B10 VL with E1D, V3Q, L4M, K40T, S66T, S68Y, F84Y, A85G, V86T, K104R
B40: M205-B04 (Fab, V domains shown)
VH: B10 VH with H31N, L33D, T35I, Y50S, P53S, H57T, I59K
VL: B10 VL with E1D, V3Q, L4M, K40T, S66T, S68Y, F84Y, A85G, V86T, K104R

These binders were tested against T1, human plasma kallikrein (human, UniProt P03952 20-390; P03952 391-638) (assay: apparent inhibition constant (Ki,app) against human pKal, enzyme inhibition).
T1 construct: also called pKal; human pKal
T1 sequence (P03952 20-390, chain 1 of 2): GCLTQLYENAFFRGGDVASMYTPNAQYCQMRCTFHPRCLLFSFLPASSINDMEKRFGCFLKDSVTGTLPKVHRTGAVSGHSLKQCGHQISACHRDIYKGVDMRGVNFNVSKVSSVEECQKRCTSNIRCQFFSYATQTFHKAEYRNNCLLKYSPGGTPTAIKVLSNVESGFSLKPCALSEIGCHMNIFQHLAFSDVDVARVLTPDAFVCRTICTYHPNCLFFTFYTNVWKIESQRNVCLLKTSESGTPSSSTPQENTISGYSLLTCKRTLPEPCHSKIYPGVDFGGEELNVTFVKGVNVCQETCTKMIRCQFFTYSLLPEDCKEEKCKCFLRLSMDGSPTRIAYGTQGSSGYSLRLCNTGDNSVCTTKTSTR
T1 sequence (P03952 391-638, chain 2 of 2): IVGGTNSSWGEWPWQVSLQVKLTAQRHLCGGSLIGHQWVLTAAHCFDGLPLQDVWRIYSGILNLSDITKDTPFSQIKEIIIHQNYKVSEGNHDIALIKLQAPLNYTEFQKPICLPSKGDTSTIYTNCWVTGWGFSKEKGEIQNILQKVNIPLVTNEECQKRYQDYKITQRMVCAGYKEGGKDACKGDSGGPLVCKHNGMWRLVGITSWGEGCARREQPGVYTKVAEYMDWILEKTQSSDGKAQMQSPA

In order of falling Ki:
1. B8  8.6 nM
2. B5  3.6 nM
3. B1  2.1 nM
4. B3  1.3 nM
5. B7  1.3 nM
6. B2  0.9 nM
7. B4  0.7 nM
8. B9  0.35 nM
9. B10  0.2 nM
10. B6  0.1 nM

Each binder was assayed against human plasma kallikrein (human, UniProt P03952 20-390; P03952 391-638) (assay: cell-based or functional assay).
Target sequence in this assay (P03952 20-390, chain 1 of 2): as the sequence (P03952 20-390, chain 1 of 2) above
Target sequence in this assay (P03952 391-638, chain 2 of 2): as the sequence (P03952 391-638, chain 2 of 2) above

In order of falling “% inhibition at 10 nM” value:
1. B11  86.5%
2. B29  85.9%
3. B13  85.5%
4. B32  85.4%
5. B37  85.3%
6. B24  84.1%
7. B15  82.6%
8. B16  82.5%
9. B20  80.3%
10. B28  78.5%
11. B26  78.2%
12. B12  77.6%
13. B21  77.1%
14. B31  76.6%
15. B38  76.1%
16. B25  74.8%
17. B36  74.8%
18. B14  74.7%
19. B40  71.1%
20. B23  69.1%
21. B19  68.8%
22. B27  67.2%
23. B17  65.5%
24. B35  61.4%
25. B18  58.8%
26. B22  58.6%
27. B34  51.4%
28. B33  47%
29. B39  43.7%
30. B30  19%
